The source of these data is paper PMC12808597 (2025).

Experiment [1] addresses exendin-asp3 tetramethylrhodamine conjugate (tetramethylrhodamine (TMR) fluorophore (conjugation position shown in Figure 2A)).
Experiment [2] concerns the target exendin-phe1 tetramethylrhodamine conjugate (tetramethylrhodamine (TMR) fluorophore (conjugation position shown in Figure 2A)).
In experiment [3] the target is exendin-asp3 Cy5 conjugate (Cy5 fluorophore (conjugation position shown in Figure 2A)).
Experiment [4] concerns the target exendin-phe1 Cy5 conjugate (Cy5 fluorophore (conjugation position shown in Figure 2A)).

B1: mouse glucagon-like peptide-1 receptor, untagged (receptor)
chain: GPRPQGTTVSLSETVQKWREYRRQCQRFLTEAPLLATGLFCNRTFDDYACWPDGPPGSFVNVSCPWYLPWASSVLQGHVYRFCTAEGLWLHKDNSSLPWRDLSECEESKRGERNFPEEQLLSLYIIYTVGYALSFSALVIASAILVGFRHLHCTRNYIHLNLFASFILRALSVFIKDAALKWMYSTAAQQHQWDGLLSYQDSLGCRLVFLLMQYCVAANYYWLLVEGVYLYTLLAFSVFSEQRIFKLYLSIGWGVPLLFVIPWGIVKYLYEDEGCWTRNSNMNYWLIIRLPILFAIGVNFLIFIRVICIVVSKLKANLMCKTDIKCRLAKSTLTLIPLLGTHEVIFAFVMDEHARGTLRFIKLFTELSFTSFQGLMVAILYCFVNNEVQMEFRKCWERWRLEHLNIQRDCSMKPLKCPTSSVSSGATVGSSVYAATCQSSYS
As usually defined, the Kd is the concentration at which binding is half-saturated. The low end stands for a tighter complex, the high end for a looser complex. For B1, the figures for the Kd in experiment [1], in experiment [2] and in experiment [3] were 5.9 nM, 6.7 nM and 2.7 nM, respectively.

B2: human glucagon-like peptide-1 receptor, untagged (receptor)
chain: RPQGATVSLWETVQKWREYRRQCQRSLTEDPPPATDLFCNRTFDEYACWPDGEPGSFVNVSCPWYLPWASSVPQGHVYRFCTAEGLWLQKDNSSLPWRDLSECEESKRGERSSPEEQLLFLYIIYTVGYALSFSALVIASAILLGFRHLHCTRNYIHLNLFASFILRALSVFIKDAALKWMYSTAAQQHQWDGLLSYQDSLSCRLVFLLMQYCVAANYYWLLVEGVYLYTLLAFSVLSEQWIFRLYVSIGWGVPLLFVVPWGIVKYLYEDEGCWTRNSNMNYWLIIRLPILFAIGVNFLIFVRVICIVVSKLKANLMCKTDIKCRLAKSTLTLIPLLGTHEVIFAFVMDEHARGTLRFIKLFTELSFTSFQGLMVAILYCFVNNEVQLEFRKSWERWRLEHLHIQRDSSMKPLKCPTSSLSSGATAGSSMYTATCQASCS
On to B2, for which the Kd stood at 18.5 nM in experiment [2] and 2.8 nM in experiment [3].

B3: GLP-1R endogenously expressed in INS-1 832/3 clonal rat β-cells (receptor)
chain: GPRPQGATVSLSETVQKWREYRHQCQRFLTEAPLLATGLFCNRTFDDYACWPDGPPGSFVNVSCPWYLPWASSVLQGHVYRFCTAEGIWLHKDNSSLPWRDLSECEESKQGERNSPEEQLLSLYIIYTVGYALSFSALVIASAILVSFRHLHCTRNYIHLNLFASFILRALSVFIKDAALKWMYSTAAQQHQWDGLLSYQDSLGCRLVFLLMQYCVAANYYWLLVEGVYLYTLLAFSVFSEQRIFKLYLSIGWGVPLLFVIPWGIVKYLYEDEGCWTRNSNMNYWLIIRLPILFAIGVNFLVFIRVICIVIAKLKANLMCKTDIKCRLAKSTLTLIPLLGTHEVIFAFVMDEHARGTLRFVKLFTELSFTSFQGFMVAVLYCFVNNEVQMEFRKSWERWRLERLNIQRDSSMKPLKCPTSSVSSGATVGSSVYAATCQNSCS
Consider B3, for which the figures for the dissociation constant Kd in experiment [2] and in experiment [4] were 12.3 nM and 0.7 nM, respectively.
